Test results reported in publication PMC9388682, “Structural basis for cannabinoid-induced potentiation of alpha1-glycine receptors in lipid nanodiscs” (Nature Communications, 2022).

Biological target: the molecule itself
Test: cryo-EM structure; purified GlyR in asolectin nanodiscs (MSP1E3D1), buffer A (200 mM NaCl, 20 mM HEPES pH 8.0); with or without 32 μM THC and 0, 0.1 or 1 mM glycine; Titan Krios 300 keV, RELION; homopentamer

B1: zebrafish glycine receptor alpha1 (GlyRα1), full-length, homopentamer in asolectin nanodiscs (receptor, UniProt O93430 25-444, looked up)
chain: ARKAASPMPPSEFLDKLMGKVSGYDARIRPNFKGPPVNVTCNIFINSFGSIAETTMDYRVNIFLRQQWNDPRLAYSEYPDDSLDLDPSMLDSIWKPDLFFANEKGANFHEVTTDNKLLRISKNGNVLYSIRITLVLACPMDLKNFPMDVQTCIMQLESFGYTMNDLIFEWDEKGAVQVADGLTLPQFILKEEKDLRYCTKHYNTGKFTCIEARFHLERQMGYYLIQMYIPSLLIVILSWVSFWINMDAAPARVGLGITTVLTMTTQSSGSRASLPKVSYVKAIDIWMAVCLLFVFSALLEYAAVNFIARQHKELLRFQRRRRHLKEDEAGDGRFSFAAYGMGPACLQAKDGMAIKGNNNNAPTSTNPPEKTVEEMRKLFISRAKRIDTVSRVAFPLVFLIFNIFYWITYKIIRSEDIHKQ
modifications: N-glycans at Asn62
notes: glycine receptor subunit alpha-1, zebrafish, codon-optimized full-length gene (NCBI NP_571477); residues of the models numbered as in UniProt O93430; Phe341-Lys394 (M3-M4 loop, ICD) not modelled in the structures; also called zebrafish homomeric GlyRα1; glycine α1 receptor
With B1 as the protein, how does the “stoichiometry N” value read?
The value was 5.
